# Article PMC6166240
# Like-named read-outs stand apart in the source and are kept apart here.
# Assays:
# Assay in all cases: X-ray crystallography
# [1] = biological target: T1, AbdB homeodomain with W motif (crystal construct);Exd homeodomain (crystal construct) (Drosophila;Drosophila, UniProt P09087-2;P40427 ;, |)
# [2] = biological target: T1, AbdB homeodomain with W motif (crystal …); remark: listed apart in the source
# [3] = biological target: T1, AbdB homeodomain with W motif (crystal …); remark: listed apart in the source
# [4] = biological target: T1, AbdB homeodomain with W motif (crystal …); remark: listed apart in the source
# [5] = biological target: AbdB homeodomain with W motif (crystal construct) (Drosophila, UniProt P09087-2)
# Chain of AbdB homeodomain with W motif (crystal construct) (P09087 369-452): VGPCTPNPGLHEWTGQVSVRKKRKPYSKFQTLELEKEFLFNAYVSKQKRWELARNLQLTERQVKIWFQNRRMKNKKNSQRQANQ
# T1 sequence (P09087 369-452, chain 1 of 2): as the sequence (P09087 369-452) above
# T1 sequence (P40427 237-310, chain 2 of 2): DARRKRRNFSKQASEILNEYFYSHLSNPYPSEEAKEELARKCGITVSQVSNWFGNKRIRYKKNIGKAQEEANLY
binder,measurement,setting,value
magenta (crystal) (dsDNA) DNA 1: GCATGATTACGAC DNA 2: GTCGTAATCATGC,binding result,[1],binds
red (crystal) (dsDNA) DNA 1: GCATGATTTATGAC DNA 2: GTCATAAATCATGC,binding result,[2],binds
blue (crystal) (dsDNA) DNA 1: GCATGATTAATGAC DNA 2: GTCATTAATCATGC,binding result,[3],binds
black (crystal) (dsDNA) DNA 1: GCATGATAAATGAC DNA 2: GTCATTTATCATGC,binding result,[4],binds
same,binding result,[5],binds
